Measured values published in the DeepSol protein solubility set.

Assay: soluble on expression in E. coli; label from the status in PepcDB or PDB records

**Q.** For “MAHHHHHHMEGEEYDKILVLNFGSQYFHLIVKRLNNIKIFSETKDYGVELKDIKDMNIKGVILSGGPYSVTEAGSPHLKKEVFEYFLEKKIPIFGICYGMQEIAVQMNGEVKKSKTSEYGCTDVNILRNDNINNITYCRNFGDSSSAMDLYSNYKLMNETCCLFENIKSDITTVWMNHNDEVTKIPENFYLVSSSENCLICSIYNKEYNIYGVQYHPEVYESLDGELMFYNFAYNICKCKKQFDPIRYHELELKNIEKYKHDHYVIAAMSGGIDSTVAAAYTHKIFKERFFGIFIDNGLLRKNEAENVYTFLKSTFPDMNITKIDASENFLSNLQGVTDPEQKRKIIGKLFIEEFEKAVNNIDIDINKTFLLQGTLYPDIIESKCSKNLSDTIKTHHNVGGLPKNLKFKLFEPFKYLFKDDVKTLSRELNLPEEITNRHPFPGPGLAIRVIGEINKHKLNILREVDDIFINDLKQYGLYNQISQAFAVLLSSKSVGVRGDARSYDYVCVLRAVKTSSFMTANWYQIPYDILDKITTRILSEVKGVNRILYDVSSKPPATIEFE”, which “soluble on expression in E. coli” value is on record?
**A.** Its value is “soluble”.

**Q.** For “LVLKVVTVTRNLDPDDTARKKAPPPPKRAPTTALTLRSKSMTSELEELVDKDKPEEIVPASKPSRAAENMAVEPRVATIKQRPSSRCFPAGSDMNSVYERQGIAVMTPTVPGSPKAPFLGIPRGTMRRQKSIDSRIFLSGITEEERQFLAPPMLKFTRSLSMPDTSEDIPPPPQSVPPSPPPPSPTTYNCPKSPTPRVYGTIKPAFNQNSAAKVSPATRSDTVATMMREKGMYFRRELDRYSLDSEDLYSRNAGPQANFRNKRGQMPENPYSEVGKIASKAVYVPAKPARRKGMLVKQSNVEDSPEKTCSIPIPTIIVKEPSTSSSGKSSQGSSMEIDPQAPEPPSQLRPDESLTVSSPFAAAIAGAVRDREKRLEARRNSPAFLSTDLGDEDVGLGPPAPRTRPSMFPEEGDFADEDSAEQLSSPMPSATPREPENHFVGGAEASAPGEAGRPLNSTSKAQGPESSPAVPSASSGTAGPGNYVHPLTGRLLDPSSPLALALSARDRAMKESQQGPKGEAPKADLNKPLYIDTKMRPSLDAGFPTVTRQNTRGPLRRQETENKYETDLGRDRKGDDKKNMLIDIMDTSQQKSAGLLMVHTVDATKLDNALQEEDEKAEVEMKPDSSPSEVPEGVSETEGALQISAAPEPTTVPGRTIVAVGSMEEAVILPFRIPPPPLASVDLDEDFIFTEPLPPPLEFANSFDIPDDRAASVPALSDLVKQKKSDTPQSPSLNSSQPTNSADSKKPASLSNCLPASFLPPPESFDAVADSGIEEVDSRSSSDHHLETTSTISTVSSISTLSSEGGENVDTCTVYADGQAFMVDKPPVPPKPKMKPIIHKSNALYQDALVEEDVDSFVIPPPAPPPPPGSAQPGMAKVLQPRTSKLWGDVTEIKSPILSGPKANVISELNSILQQMNREKLAKPGEGLDSPMGAKSASLAPRSPEIMSTISGTRSTTVTFTVRPGTSQPITLQSRPPDYESRTSGTRRAPSPVVSPTEMNKETLPAPLSAATASPSPALSDVFSLPSQPPSGDLFGLNPAGRSRSPSPSILQQPISNKPFTTKPVHLWTKPDVADWLESLNLGEHKEAFMDNEIDGSHLPNLQKEDLIDLGVTRVGHRMNIERALKQLLDR”, which “soluble on expression in E. coli” value is on record?
**A.** Its value is “soluble”.

**Q.** With “GMSAQAKNKLEALKAMTTVVADTGDIEAIKQFKPVDATTNPSLILKAAKLANYQHLIEEAIDWALQIKGNDKNSQTTLENVGDKLAVNIGCEVLTSIPGVISTEVDARLSFDTQATVAKARKLIRLYQDAGIDSDRILIKIASTWEGIQAAKILEAEGIHCNLTLLFHFAQAQACAEAGTTLISPFVGRILDWYKANSGQSEYSASEDPGVVSVTEIYNFYKSHGFKTIVMGASFRNTGEIEELAGCDRLTISPELLAQLEADTSPLEQKLFPIKETKDTPELLTEASFRWAMNNDPMAHDKLADGIRRFAADQVTLESMLSKKISQRS” as the sequence, how does the “soluble on expression in E. coli” value read?
**A.** Its value is “soluble”.

**Q.** Which “soluble on expression in E. coli” value does the source give for “PLAIVTSPEIKSPGDLKGKRLMLSEVNIDSANFTHMLQGFGLSMKDIQILSTSFNIHDFIDGKVDAYSIFLTNELFDLQRLGVRYNILDPSNYGVELYDENLFGAKEFVLKNPTLVKRFIDASNRGWQYALDHPEEIVDLILERYNTQ” here?
**A.** Its value is “not soluble”.

**Q.** For “MESAIKKRRLEDSKLLGDLWQRLSHSRKKLMEIFHIILNQICLLPILESSCDNIHGFIEEFLQIFSSLLQEKRFLRDYDALFPVAEDISLLQQASSVLDETRTAYILQAVESAWEGVDRRKATDAKDPSVIEEPNGEPNGVTVTAEAVSQASSHPENSEEEECMGAAAAVGPAMCGVELDSLISQVKDLLPDLGEGFILACLEYYHYDPEQVINNILEERLAPTLSQLDRNLDREMNPDPTPLLTSRHNVFQNDEFDVFSRDSVDLSRVHKGKSTRKEENTRSLLNDKRAVAAQRQCYEQYSVVVEEVPLQPGESLPYHSVYYEDEYDDTYDGNQVGANDADSDDELISRRPFTIPQVLRTKVPREGQEEDDDDEEDDADEEAPKPDHFVQDPAVLREKAEARRMAFLAKKGYRHDSSTAVAGSPRGHGQSRETTQERRKKEANKATRANHNRRTMADRKRSKGMIPS”, which “soluble on expression in E. coli” value is on record?
**A.** Its value is “soluble”.

**Q.** For “MGSDKIHHHHHHMIKLFIVACGYIIYKLGRYCKENEYYMASLLMLQYHKSLSAERQQILYTNFTYYKKLSEKKKLEFEKRVQHFLTNKSFIASDGFEITEQMKVMIAATAVQILFCRKAYYLSSFDFIELFEEVPVHVEVMRKKRIIQISWNEFKKGFDSLIDGYNPGLKIMAMALDLEHKFGEKSLFSQQTYKAFQKIYKQEAEKYILSGKSKYDHYNKVDRTEYFAVAVEYFFERPEHFNVNQPAMYLALSKLLRQDPLGMYTYKEKVFE”, which “soluble on expression in E. coli” value is on record?
**A.** Its value is “not soluble”.

**Q.** With “MSLNGFCARLRAITFNERLKMKIAVLLSGGVDSSYSAYSLKEQGHELVGIYLKLHASEKKHDLYIKNAQKACEFLGIPLEVLDFQKDFKSAVYDEFINAYEEGQTPNPCALCNPLMKFGLALDHALKLGCEKIATGHYARVKEIDKVSYIQEALDKTKDQSYFLYALEHEVIAKLVFPLGDLLKKDIKPLALNAMPFLGTLETYKESQEICFVEKSYIDTLKKHVEVEKEGVVKNLQGEVIGTHKGYMQYTIGKRKGFSVKGALEPHFVVGIDAKKNELIVGKKEDLATHSLKAKNKSLTKDFKDGEYFIKARYRSVPTKAFVSLKDGMIEVEFKEPFYGVAKGQALVVYKDDILLGGGVIVEGHHHHHH” as the sequence, how does the “soluble on expression in E. coli” value read?
**A.** Its value is “soluble”.

**Q.** With “MEKSVNVIGAGLAGSEAAWQLVKRGVKVDLYEMRPVKQTPAHHTDKFAELVCTNSLRANGLTNAVGVIKEEMRLLDSIIIESADKASVPAGGALAVDRHEFSGYITDKVKNHPLVTIHTEEVTSIPEGPTIIATGPLTSPALAEEIKRLTGEEYLYFYDAAAPIIEKDSIDMDKVYLKSRYDKGEAAYLNCPMSEEEFNTFYEALVTAETAALKEFEKEVFFEGCMPIEVMAKRGIKTMLFGPLKPVGLEDPKTGKRPYAVLQLRQDDAAGTLYNMVGFQTHLKWGEQKRVFGLIPGLENAEIVRYGVMHRNTFINSPTVLEPTYQLKTRNDLFFAGQMTGVEGYVESAASGLAAGINAANFVQDKEPIVFPPESAIGSLANYITSASKKSFQPMNVNFGLFPELPTKIRAKQERNEKLAERALDAIKKVAEQLLEHHHHHH” as the sequence, how does the “soluble on expression in E. coli” value read?
**A.** Its value is “soluble”.

**Q.** For “SEDDAPVIYGLEFQARALTPQTAETDAIRFLVGTQSLKYDNQIHIIDFDDENNIINKNVLLHQAGEIWHISASPADRGVLTTCYNRTSDSKVLTCAAVWRMPKELESGSHESPDDSSSTAQTLELLCHLDNTAHGNMACVVWEPMGDGKKIISLADNHILLWDLQESSSQAVLASSASLEGKGQLKFTSGRWSPHHNCTQVATANDTTLRGWDTRSMSQIYCIENAHGQLVRDLDFNPNKQYYLASCGDDCKVKFWDTRNVTEPVKTLEEHSHWVWNVRYNHSHDQLVLTGSSDSRVILSNMVSISSEPFGHLVDDDDISDQEDHRSEEKSKEPLQDNVIATYEEHEDSVYAVDWSSADPWLFASLSYDGRLVINRVPRALKYHILL”, which “soluble on expression in E. coli” value is on record?
**A.** Its value is “soluble”.

**Q.** Which “soluble on expression in E. coli” value does the source give for “MTPKEIFESNRPGSKDVAWCPGCGNFGIRNILIEAFSELNLKPTEVVIISGIGQAAKMPHYINVNGYHTLHGRAIPIATAVKAANPSLTVIAEGGDGDMYAEGGNHLLHAIRRNPDITVLIHNNQIYGLTKGQASPTTPIGMKTPTQPWGVFEEPLNPIALAIALGASFVARTFVGYFKESVEIIKQAIKHKGLAIVDIFQPCVSFNKLNTYSWYKEHTYWMKDHDPHDRIEAFKRAIETDPLPLGIFYINEKPTFEEQVPAYKRDKRPLWMRDPKIELVKKFFESKR” here?
**A.** The value was “not soluble”.

**Q.** For “FKRVSKAAVTASVTVIKAEDLVNTPVANPMELLQGRVPGLNIQMNNGTPGGLPSFSIRGVSDISVQSSGDGEFMMGLTPPLFVVDGIPQEDVTGYDAAGLLSGATVSPLAMIPLEDIANIQVLKDAAATSLYGSKGAYGVILIETKRGETA”, which “soluble on expression in E. coli” value is on record?
**A.** The value was “not soluble”.

**Q.** Which “soluble on expression in E. coli” value does the source give for “MAQVMYATPDNMLSRFGEQDLTLLTEREDSVPGEINLALLEQALSDASAEIDGYIAGRYVLPLTTVPAVLERNCCDIARYFLYGDKAPEQVEKRYAAVVKFLTAVSKGDISLGLATTGETADQSELVISIESAGSVFGRKSAKGFI” here?
**A.** The value was “soluble”.

**Q.** With “MEASRLLLLEDSSVDAELIEDQLSRLSPPPAVTRAVGKASFIEALEKQQFDIILADFSLPDFDGMSALDLVMRTRPDTPFIFVSGILGEDAAIDAFRRGATDYVLKQRLVRLPSAVERALAEAREKQERKRAELHKELLVRELSHRVKNTMAMVVSIIRRTAKGSTSIKDYQERLVARVSALAESHALLFQSNWGETNLRDVVKRAIEPHNTFASRVELEGPDGVHVSPKSALALGMILHELATNAQKYGSLSGANGKVEVFWKKILNGDGNDCIDLRWQESGGPPVSVPQDTGFGTTLITRGVQYELQAESEIRYDPDGLQYRVIFPLD” as the sequence, how does the “soluble on expression in E. coli” value read?
**A.** The value was “not soluble”.

**Q.** Which “soluble on expression in E. coli” value does the source give for “MAHHHHHHMCEKDDITVNEEILQKAQEFQVENEKDIKMKKLKPITEGLLKPEVDLLQISERGSRGRVKICNVLNVPRSEKEYNNNNSDKVENKYIGKIITVCGWSKAIRKQGGGRFCFVNLNDGSCHLNLQIVVNQCIENYEKLLKCGAGCCFRFTGELIISPVQNDNNKKGLLKENVELALNNNDIHNFEIYGENLDPQKYPLSKKNHGKEFLREVAHLRPRSYFISSVIRIRNSLSIATHLFFQSRGFLYIHTPLITTSDCEGGGEMFTVTTLLNENGDIRSIPRINLKNKKKEKREDILNEKNGKKDHMNDSLNNNTCNNNNNNGNSSSSNIVSSPQYEDNYLIDYKKDFFSKQAFLTVSGQLSLENLCSSMGDVYTFGPTFRAENSHTSRHLAEFWMIEPEIAFADLYDNMELAEAYIKYCIDYVLNNNFHDIYYFEENVETNLIKRLKNILNEDFAKITYTNAIEILQNYSDSFEVKVEWGMDLQSEHERFIAEKIFKKPVIVYNYPKDLKAFYMKLNEDNKTVAAMDVLVPKIGEVIGGSQREDNLERLDKMIKEKKLNIDSYWWYRQLRQYGSHPHAGFGLGFERLIMLVTGVDNIKDTIPFPRYPGHAEF” here?
**A.** Its value is “soluble”.

**Q.** Which “soluble on expression in E. coli” value does the source give for “MGSDKIHHHHHHMIKKIYFIMVVIGSILLSSCDSYLDIQPVGQVIPTTLTEYRALLTTAYGLKLIDKSVTEFRTDIAMVTDNSNSQNFYSEIEKWNDMSPKDGTREFGWAVYYSVIYYANAIIANKDNIKEGSQEDIDQLVGEAYLLRGYMHFILANLYGQPYTKEGAPETKSIPIKWDLDLEVVLPRNTVKEVYTAILSDIESARGLMHQKEWEAVYAYRFSTLSVDAMESRVRLYMGNWKEAYDAAERILVQKSTLEDLNDPEAKLPNNYTSAEMITAYEFFNDDVTSASILIPAFMEKYDANKDLRRNKYYSLSGDKYISKKSGKAEHNCTFRTGEIYLNAAEAAAQMNKLPEARTRLLQLMEKRYTPEGYAEKKKAVDAMNQADLIKEILEERALELAFEGHRWFDLRRTTRPRIEKVLNGQAYLLEQDDSRYTLRIPQSAIAANPGLLN” here?
**A.** Its value is “not soluble”.

**Q.** With “MSLKILMIMEEAEERRSLAEKFIENIKNVECFEASMGTEALFIMKKHTPDFVFLNSKLMDGTGFEYVNLLREVNCYAKFIFMGEDIEESITAFRFQAFYYLLRPFREEDLQFLLYRMGKEGHHHHHH” as the sequence, how does the “soluble on expression in E. coli” value read?
**A.** The value was “soluble”.
